From PMC2860068 (DNA repair, 2010)
Each block holds one binder with its values, some of them ahead of it.

Columns and labels:
[1] = biological target: T1, hMSH6 (recombinant, subunit of purified hMutSα) (human, UniProt P52701 1-1360); assay: far-Western
[2] = biological target: T1, hMSH6 (recombinant, subunit of purified …); assay: pull-down
[3] = biological target: hMSH3 (recombinant, subunit of purified hMutSβ) (human, UniProt P20585 1-1137); assay: far-Western
Chain of hMSH3 (recombinant, subunit of purified hMutSβ) (P20585 whole entry): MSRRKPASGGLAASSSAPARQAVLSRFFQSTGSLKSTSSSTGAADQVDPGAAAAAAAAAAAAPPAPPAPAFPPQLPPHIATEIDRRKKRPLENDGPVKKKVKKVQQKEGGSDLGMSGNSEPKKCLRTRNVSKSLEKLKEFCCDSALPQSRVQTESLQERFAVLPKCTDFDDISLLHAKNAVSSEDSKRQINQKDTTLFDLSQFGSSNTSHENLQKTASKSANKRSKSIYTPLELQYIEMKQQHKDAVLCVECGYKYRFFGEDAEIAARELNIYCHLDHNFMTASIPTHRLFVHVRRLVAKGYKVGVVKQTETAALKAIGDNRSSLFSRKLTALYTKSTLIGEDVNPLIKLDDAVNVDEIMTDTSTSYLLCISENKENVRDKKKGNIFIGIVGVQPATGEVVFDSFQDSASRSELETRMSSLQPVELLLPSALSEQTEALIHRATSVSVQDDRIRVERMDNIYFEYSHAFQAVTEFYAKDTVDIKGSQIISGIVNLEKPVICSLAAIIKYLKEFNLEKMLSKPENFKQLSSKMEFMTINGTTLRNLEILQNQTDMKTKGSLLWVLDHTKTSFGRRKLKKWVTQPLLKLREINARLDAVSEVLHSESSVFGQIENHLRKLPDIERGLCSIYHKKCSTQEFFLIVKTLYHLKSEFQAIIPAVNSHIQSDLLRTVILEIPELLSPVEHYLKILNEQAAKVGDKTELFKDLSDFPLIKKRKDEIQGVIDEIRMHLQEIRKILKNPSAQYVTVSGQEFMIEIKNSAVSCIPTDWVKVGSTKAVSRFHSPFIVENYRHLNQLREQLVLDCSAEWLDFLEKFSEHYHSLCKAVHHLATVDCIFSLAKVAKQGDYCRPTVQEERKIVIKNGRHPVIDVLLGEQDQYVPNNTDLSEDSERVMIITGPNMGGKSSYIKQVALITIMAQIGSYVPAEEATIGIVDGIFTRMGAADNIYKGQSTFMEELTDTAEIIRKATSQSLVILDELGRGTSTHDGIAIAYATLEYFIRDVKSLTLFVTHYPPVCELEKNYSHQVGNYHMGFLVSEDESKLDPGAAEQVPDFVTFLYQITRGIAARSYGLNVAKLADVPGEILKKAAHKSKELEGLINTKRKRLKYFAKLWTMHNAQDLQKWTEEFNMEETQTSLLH

T1 sequence (P52701 whole entry): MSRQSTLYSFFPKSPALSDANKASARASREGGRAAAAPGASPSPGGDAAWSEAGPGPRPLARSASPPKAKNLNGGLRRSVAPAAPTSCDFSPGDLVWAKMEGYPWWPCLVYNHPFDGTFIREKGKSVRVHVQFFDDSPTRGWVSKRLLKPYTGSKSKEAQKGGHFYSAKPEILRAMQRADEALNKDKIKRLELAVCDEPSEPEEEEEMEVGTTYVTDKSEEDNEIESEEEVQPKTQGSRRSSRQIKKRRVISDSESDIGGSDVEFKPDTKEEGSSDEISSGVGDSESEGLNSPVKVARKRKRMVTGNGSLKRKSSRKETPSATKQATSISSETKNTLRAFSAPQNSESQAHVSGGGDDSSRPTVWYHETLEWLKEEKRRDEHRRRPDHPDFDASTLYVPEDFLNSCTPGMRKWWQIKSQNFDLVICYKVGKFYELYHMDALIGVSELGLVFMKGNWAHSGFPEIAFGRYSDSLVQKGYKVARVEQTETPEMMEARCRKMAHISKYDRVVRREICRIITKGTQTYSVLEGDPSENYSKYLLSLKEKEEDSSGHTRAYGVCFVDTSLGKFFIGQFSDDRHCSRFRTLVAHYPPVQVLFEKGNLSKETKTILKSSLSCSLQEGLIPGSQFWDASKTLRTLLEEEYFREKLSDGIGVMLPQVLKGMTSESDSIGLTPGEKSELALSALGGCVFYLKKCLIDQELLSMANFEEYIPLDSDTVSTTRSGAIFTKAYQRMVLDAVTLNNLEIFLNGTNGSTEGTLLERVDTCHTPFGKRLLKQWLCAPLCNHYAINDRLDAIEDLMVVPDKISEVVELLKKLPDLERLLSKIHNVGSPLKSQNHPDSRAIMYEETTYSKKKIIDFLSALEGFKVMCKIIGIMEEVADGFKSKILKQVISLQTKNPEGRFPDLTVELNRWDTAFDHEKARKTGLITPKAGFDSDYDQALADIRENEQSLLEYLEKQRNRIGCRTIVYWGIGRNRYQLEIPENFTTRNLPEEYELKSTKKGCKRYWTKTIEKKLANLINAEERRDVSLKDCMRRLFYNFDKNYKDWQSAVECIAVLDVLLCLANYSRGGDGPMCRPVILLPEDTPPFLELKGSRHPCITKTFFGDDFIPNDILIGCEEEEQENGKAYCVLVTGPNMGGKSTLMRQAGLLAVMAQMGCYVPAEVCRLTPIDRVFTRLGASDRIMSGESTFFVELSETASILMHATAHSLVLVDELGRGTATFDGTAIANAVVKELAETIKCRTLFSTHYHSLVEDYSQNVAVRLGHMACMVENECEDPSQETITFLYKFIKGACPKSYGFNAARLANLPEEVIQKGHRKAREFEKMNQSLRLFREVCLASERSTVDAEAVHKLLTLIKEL

binding result [1]: binds
B1: GST-hRad1 (natural protein, human, UniProt O60671 1-282, looked up)
chain: MPLLTQQIQDEDDQYSLVASLDNVRNLSTILKAIHFREHATCFATKNGIKVTVENAKCVQANAFIQAGIFQEFKVQEESVTFRINLTVLLDCLSIFGSSPMPGTLTALRMCYQGYGYPLMLFLEEGGVVTVCKINTQEPEETLDFDFCSTNVINKIILQSEGLREAFSELDMTSEVLQITMSPDKPYFRLSTFGNAGSSHLDYPKDSDLMEAFHCNQTQVNRYKISLLKPSTKALVLSCKVSIRTDNRGFLSLQYMIRNEDGQICFVEYYCCPDEEVPESES

binding result [2]: binds
binding result [3]: binds
B2: GST-hHus1 (natural protein, human, UniProt O60921 1-280, looked up)
chain: MKFRAKIVDGACLNHFTRISNMIAKLAKTCTLRISPDKLNFILCDKLANGGVSMWCELEQENFFNEFQMEGVSAENNEIYLELTSENLSRALKTAQNARALKIKLTNKHFPCLTVSVELLSMSSSSRIVTHDIPIKVIPRKLWKDLQEPVVPDPDVSIYLPVLKTMKSVVEKMKNISNHLVIEANLDGELNLKIETELVCVTTHFKDLGNPPLASESTHEDRNVEHMAEVHIDIRKLLQFLAGQQVNPTKALCNIVNNKMVHFDLLHEDVSLQYFIPALS

binding result [1]: binds
B3: GST-hRad9 (natural protein, human, UniProt Q99638 1-391, looked up)
chain: MKCLVTGGNVKVLGKAVHSLSRIGDELYLEPLEDGLSLRTVNSSRSAYACFLFAPLFFQQYQAATPGQDLLRCKILMKSFLSVFRSLAMLEKTVEKCCISLNGRSSRLVVQLHCKFGVRKTHNLSFQDCESLQAVFDPASCPHMLRAPARVLGEAVLPFSPALAEVTLGIGRGRRVILRSYHEEEADSTAKAMVTEMCLGEEDFQQLQAQEGVAITFCLKEFRGLLSFAESANLNLSIHFDAPGRPAIFTIKDSLLDGHFVLATLSDTDSHSQDLGSPERHQPVPQLQAHSTPHPDDFANDDIDSYMIAMETTIGNEGSRVLPSISLSPGPQPPKSPGPHSEEEDEAEPSTVPGTPPPKKFRSLFFGSILAPVRSPQGPSPVLAEDSEGEG
